Columns and labels:
[1] = molecular target: antibodies of human serum sample 16CDV61278 (Zika IgG positive) (human); assay: blocking of ß-ladder DAGS ECL signal
[2] = molecular target: antibodies of human serum sample 16CDV61275 (Zika IgG) (human); assay: blocking of ß-ladder DAGS ECL signal
[3] = molecular target: antibodies of human serum sample 16CDV61197 (Zika IgG positive) (human); assay: blocking of ß-ladder DAGS ECL signal
[4] = molecular target: antibodies of human serum sample 16CDV61278 (Zika IgG positive) (human); assay: blocking of wing DAGS ECL signal
[5] = molecular target: antibodies of human serum sample 16CDV61275 (Zika IgG) (human); assay: blocking of wing DAGS ECL signal
[6] = molecular target: antibodies of human serum sample 16CDV61197 (Zika IgG positive) (human); assay: blocking of wing DAGS ECL signal

B1: Dengue virus type 4 NS1 full length (protein)
chain: DTGCAVSWSGKELKCGSGIFVIDNVHTWTEQYKFQPESPARLASAILNAHEDGVCGIRSTTRLENIMWKQITNELNYVLWEGGHDLTVVAGDVKGVLSKGKRALAPPVNDLKYSWKTWGKAKIFTPEAKNSTFLIDGPDTSECPNERRAWNFLEVEDYGFGMFTTNIWMKFREGSSEVCDHRLMSAAIKDQKAVHADMGYWIESSKNQTWQIEKASLIEVKTCLWPKTHTLWSNGVLESQMLIPKAYAGPFSQHNYRQGYATQTVGPWHLGKLEIDFGECPGTTVTIQEDCDHRGPSLRTTTASGKLVTQWCCRSCTMPPLRFLGEDGCWYGMEIRPLSEKEENMVKSQVSA
**Q.** Which results are given for B1?
**A.** Blocking [%] [1]: 2.6%; Normalized to Zika Blocking [%] [1]: 3.7%; Blocking [%] [2]: 25.1%; Normalized to Zika Blocking [%] [2]: 27.3%; Blocking [%] [3]: 31.6%; Normalized to Zika Blocking [%] [3]: 50.3%; Blocking [%] [4]: 4.5%; Normalized to Zika Blocking [%] [4]: 4.9%; Blocking [%] [5]: 2.48%; Normalized to Zika Blocking [%] [5]: 3.3%; Blocking [%] [6]: 0.891%; Normalized to Zika Blocking [%] [6]: 1.2%
